This test addresses Rabbit polyclonal Ab. Nature of the test: ELISA.

B1: phosphorylated HisTAG-ΔPDGFRAaa1-528 (receptor)
chain: QLSLPSILPNENEKVVQLNSSFSLRCFGESEVSWQYPMSEEESSDVEIRNEENNSGLFVTVLEVSSASAAHTGLYTCYYNHTQTEENELEGRHIYIYVPDPDVAFVPLGMTDYLVIVEDDDSAIIPCRTTDPETPVTLHNSEGVVPASYDSRQGFNGTFTVGPYICEATVKGKKFQTIPFNVYALKATSELDLEMEALKTVYKSGETIVVTCAVFNNEVVDLQWTYPGEVKGKGITMLEEIKVPSIKLVYTLTVPEATVKDSGDYECAARQATREVKEMKKVTISVHEKGFIEIKPTFSQLEAVNLHEVKHFVVEVRAYPPPRISWLKNNLTLIENLTEITTDVEKIQEIRYRSKLKLIRAKEEDSGHYTIVAQNEDAVKSYTFELLTQVPSSILDLVDDHHGSTGGQTVRCTAEGTPLPDIEWMICKDIKKCNNETSWTILANNVSNIITEIHSRDRSTVEGRVTFAKVEETIAVRCLAKNLLGAENRELKLVAPTLRSELTVA
modifications: tyrosine-phosphorylated (ectopically, by MAN2A1-FER in HUH7 cells); sites recognised by the antibodies: pY118/pY120, pY342, pY375, pY391
Turning to B1, the dissociation constant Kd came out at 18.6 nM.

The values above are taken from patent US20260258142A1 (published 2026).
